From patent US20240209367

Target: C3b

B1: Complement Factor I (FI) (protein)
chain: KVTYTSQEDLVEKKCLAKKYTHLSCDKVFCQPWQRCIEGTCVCKLPYQCPKNGTAVCATNRRSFPTYCQQKSLECLHPGTKFLNNGTCTAEGKFSVSLKHGNTDSEGIVEVKLVDQDKTMFICKSSWSMREANVACLDLGFQQGADTQRRFKLSDLSINSTECLHVHCRGLETSLAECTFTKRRTMGYQDFADVVCYTQKADSPMDDFFQCVNGKYISQMKACDGINDCGDQSDELCCKACQGKGFHCKSGVCIPSQYQCNGEVDCITGEDEVGCAGFASVTQEETEILTADMDAERRRIKSLLPKLSCGVKNRMHIRRKRIVGGKRAQLGDLPWQVAIKDASGITCGGIYIGGCWILTAAHCLRASKTHRYQIWTTVVDWIHPDLKRIVIEYVDRIIFHENYNAGTYQNDIALIEMKKDGNKKDCELPRSIPACVPWSPYLFQPNDTCIVSGWGREKDNERVFSLQWGEVKLISNCSKFYGNRFYEKEMECAGTYDGSIDACKGDSGGPLVCMDANNVTYVWGVVSWGENCGKPEFPGVYTKVANYFDWISYHVGRPFISQYNV
in vitro C3b breakdown assay (C3b incubated with FI and a fragment of cofactor CR1; time course by gel electrophoresis and GluC/SRM-MS): the formation of C3b fragments iC3b, C3f and C3c, and loss of intact C3b can be clearly detected over time
